Laboratory results reported in article PMC9368931, “Involvement of a Cluster of Basic Amino Acids in Phosphorylation-Dependent Functional Repression of the Ceramide Transport Protein CERT” (International Journal of Molecular Sciences, 2022).
Where “and” joins values, the source holds several entries; their conditions need not be identical. Identical values can stand only once.

B1: Recombinant human CERT S132A/13A purified from Sf21 cells (natural protein, UniProt Q9Y5P4-2 1-598, looked up)
chain: MSDNQSWNSSGSEEDPETESGPPVERCGVLSKWTNYIHGWQDRWVVLKNNALSYYKSEDETEYGCRGSICLSKAVITPHDFDECRFDISVNDSVWYLRAQDPDHRQQWIDAIEQHKTESGYGSESSLRRHGAMVSLVSGASGYSATSTSSFKKGHSLREKLAEMETFRDILCRQVDTLQKYFDACADAVSKDELQRDKVVEDDEDDFPTTRSDGDFLHSTNGNKEKLFPHVTPKGINGIDFKGEAITFKATTAGILATLSHCIELMVAAEDSWQAALDAETEAAAATEEAYANAMTELAAASHFGGPDYEEGPNSLINEEEFFDAVEAALDRQDKIEEQSQSEKVRLHWPTSLPSGDAFSSVGTHRFVQKVEEMVQNHMTYSLQDVGGDANWQLVVEEGEMKVYRREVEENGIVLDPLKATHAVKGVTGHEVCNYFWNVDVRNDWETTIENFHVVETLADNAIIIYQTHKRVWPASQRDVLYLSVIRKIPALTENDPETWIVCNFSVDHDSAPLNNRCVRAKINVAMICQTLVSPPEGNQEISRDNILCKITYVANVNPGGWAPASVLRAVAKREYPKFLKRFTSYVQEKTAGKPILF
notes: Ceramide transport protein CERT (GPBPΔ26), human, printed length 598 amino acids; The template plasmid is named pBS/nHAcFL-CERT, which may mean a further C-terminal FLAG tag; also called S132/13A; not shown: HA, N-terminal, kept
B2: Recombinant human CERT S132A purified from Sf21 cells (natural protein, UniProt Q9Y5P4-2 1-598, looked up)
chain: MSDNQSWNSSGSEEDPETESGPPVERCGVLSKWTNYIHGWQDRWVVLKNNALSYYKSEDETEYGCRGSICLSKAVITPHDFDECRFDISVNDSVWYLRAQDPDHRQQWIDAIEQHKTESGYGSESSLRRHGAMVSLVSGASGYSATSTSSFKKGHSLREKLAEMETFRDILCRQVDTLQKYFDACADAVSKDELQRDKVVEDDEDDFPTTRSDGDFLHSTNGNKEKLFPHVTPKGINGIDFKGEAITFKATTAGILATLSHCIELMVKREDSWQKRLDKETEKKRRTEEAYKNAMTELKKKSHFGGPDYEEGPNSLINEEEFFDAVEAALDRQDKIEEQSQSEKVRLHWPTSLPSGDAFSSVGTHRFVQKVEEMVQNHMTYSLQDVGGDANWQLVVEEGEMKVYRREVEENGIVLDPLKATHAVKGVTGHEVCNYFWNVDVRNDWETTIENFHVVETLADNAIIIYQTHKRVWPASQRDVLYLSVIRKIPALTENDPETWIVCNFSVDHDSAPLNNRCVRAKINVAMICQTLVSPPEGNQEISRDNILCKITYVANVNPGGWAPASVLRAVAKREYPKFLKRFTSYVQEKTAGKPILF
notes: Ceramide transport protein CERT (GPBPΔ26), human, printed length 598 amino acids; The template plasmid is named pBS/nHAcFL-CERT, which may mean a further C-terminal FLAG tag; Mainly a homo-trimer by cross-linking and blue native PAGE; not shown: HA, N-terminal, kept

Key:
[1] = molecular target: the molecule itself; assay: cross-linking; purified CERT (10.8 ng in 30 μL of 50 mM HEPES-NaOH pH 7.4) with EGS (0.1-1.6 mM) on ice for 2 h; SDS-PAGE (6%) and anti-HA western blot
[2] = molecular target: the molecule itself; assay: native gel or EMSA; blue native PAGE of purified CERT (10 ng), 1% digitonin, 0.25% CBB G-250, 4-16% Bis-Tris gel; anti-HA western blot

Protein | stoichiometry N [1] | stoichiometry N [2]
B1 | 2 and 3 | 
B2 |  | 3
